Patent US20190062453A1 (Hoffmann-La Roche, published 2019)

T1: Recombinant human DcR1-Fc (human, UniProt O14798 26-221)
T1 construct: bought; also called huDcR1Fc; human DcR1 (TNFRSF10C); Fc part of the bought chimera not given
T1 sequence (looked up): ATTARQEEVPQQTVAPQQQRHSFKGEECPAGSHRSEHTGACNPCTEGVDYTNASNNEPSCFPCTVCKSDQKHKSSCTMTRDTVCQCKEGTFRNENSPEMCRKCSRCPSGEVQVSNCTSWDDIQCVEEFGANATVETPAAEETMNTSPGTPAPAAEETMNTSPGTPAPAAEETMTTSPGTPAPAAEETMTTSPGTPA

T2: Recombinant human DcR2-Fc (human, UniProt Q9UBN6 56-211)
T2 construct: bought for the phage antibodies; also called huDcR2Fc; human DcR2 (TNFRSF10D); not shown: Fc part of the chimera
T2 sequence (looked up): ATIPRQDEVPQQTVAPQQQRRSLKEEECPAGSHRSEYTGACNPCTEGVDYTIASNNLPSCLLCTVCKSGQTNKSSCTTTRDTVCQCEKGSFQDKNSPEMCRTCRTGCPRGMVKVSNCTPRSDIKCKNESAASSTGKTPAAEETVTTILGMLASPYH

T3: Recombinant human OPG-Fc (human, UniProt O00300 22-194)
T3 construct: bought; also called rhuOPGFc; human Osteoprotegerin; Fc part of the bought chimera not given
T3 sequence (looked up): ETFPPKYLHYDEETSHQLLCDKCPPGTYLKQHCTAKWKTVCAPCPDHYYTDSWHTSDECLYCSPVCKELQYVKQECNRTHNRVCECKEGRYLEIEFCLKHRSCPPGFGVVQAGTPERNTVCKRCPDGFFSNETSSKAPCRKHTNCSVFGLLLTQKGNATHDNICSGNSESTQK


Columns and labels:
[1] = biological target: T4, murine DR5 ECD-AcTev-hu Fc-Avi (murine, UniProt Q9QZM4 53-153); assay: binding ELISA
T4 construct: range 53-153; also called mouse DR5

Recombinant human DR4-Fc [2] = biological target: T5, Recombinant human DR4-Fc (human, UniProt O00220 109-239); assay: binding ELISA
T5 construct: bought; also called huDR4Fc; human DR4 (TNFRSF10A); Fc part of the bought chimera not given

[3] = biological target: T1, Recombinant human DcR1-Fc; assay: binding ELISA
[4] = biological target: T2, Recombinant human DcR2-Fc; assay: binding ELISA
Recombinant human OPG-Fc [5] = biological target: T3, Recombinant human OPG-Fc; assay: binding ELISA
[6] = biological target: T6, human DR5 (monomeric Fc fusion) (human, UniProt O14763 56-207, biotinylated at the Avi tag in the ELISA (the tag is not in the letters)); assay: biochemical ELISA, biotinylated antigen on streptavidin plate
T6 construct: biotinylated in the ELISA; also called ECD-AcTev-hu Fc knob-Avi; not shown: AcTev site, hu Fc knob and Avi part of the fusion chain, and the separate Fc-hole chain

[7] = biological target: T7, Cynom. DR5 (ECD)-AcTev-Fc-Avi (cynomolgus); assay: as above
T7 construct: also called cynomolgus DR5; cy DR5
Protocol: Antigen binding immunoassays were performed at room temperature on 384 well streptavidin coated microtiter plates (MicroCoat Biotechnologie GmbH) with PBS buffer supplemented with 0.05% Tween®-20 and 0.5% BSA (Roche Diagnostics GmbH). […] After 90 min incubation the plate was washed 6 times with PBST (phosphate buffered saline with 0.2% Tween®-20) and developed with BM Blue® HRP substrate solution (BM Blue®: 3,3′-5,5′-Tetramethylbenzidine, Roche Diagnostics GmbH) for 30 minutes at RT. Absorbance was measured at 370 nm. The blank value was defined without addition of supernatant.

human DR5 ECD-Avi-his = biological target: T8, human DR5 ECD-Avi-his (human, UniProt O14763 56-207); assay: SPR, rabbit IgG captured by anti rabbit, monomeric DR5 injected
T8 construct: also called recombinant human DR5 (monomeric His-Avi fusion protein); monomeric human DR5
Protocol: The sample and system buffer was PBS-T (10 mM phosphate buffered saline including 0.05% Tween20) pH 7.4. The flow cell was set to 25° C.—and the sample block set to 12° C.—and primed with running buffer twice.
The dissociation phase was monitored for up to 300 sec and triggered by switching from the sample solution to running buffer. The surface was regenerated by 60 sec washing with a 100 mM H3PO4 (phosphoric acid) solution at a flow rate of 30 μl/min. Bulk refractive index differences were corrected by subtracting the response obtained from a blank surface. Buffer injections are also subtracted (=double referencing). For calculation of KD and other kinetic parameters the Langmuir 1:1 model was used.

Recombinant human DR4-Fc [8] = biological target: T5, Recombinant human DR4-Fc; assay: SPR, receptor-Fc on CM5 chip
[9] = biological target: T1, Recombinant human DcR1-Fc; assay: SPR, receptor-Fc on CM5 chip
[10] = biological target: T2, Recombinant human DcR2-Fc; assay: SPR, receptor-Fc on CM5 chip
Recombinant human OPG-Fc [11] = biological target: T3, Recombinant human OPG-Fc; assay: SPR, receptor-Fc on CM5 chip
[12] = biological target: T4, murine DR5 ECD-AcTev-hu Fc-Avi; assay: SPR, biotinylated DR5 on SA chip

Row | Binder | binding result [1] | binding result (Recombinant human DR4-Fc [2]) | binding result [3] | binding result [4] | binding result (Recombinant human OPG-Fc [5]) | EC50 [6] | EC50 [7] | Kd (human DR5 ECD-Avi-his) | binding result (Recombinant human DR4-Fc [8]) | binding result [9] | binding result [10] | binding result (Recombinant human OPG-Fc [11]) | binding result [12]
1 | DR5TAA-0019 (antibody, V domains shown, rabbit IgG) VH: QSVEESGGRLVTPGTPLTLTCTVSGFSLSNYAMSWVRQAPGKGLEWIGIISSSGTTYYASWAKGRFTISKTSTTVDLKVTSPTTEDTATYFCARETYYGYSYAAGLWGPGTLVTVSS VL: ALVMTQTPSSVSAAVGGTVTINCQASQNIYSNLAWFQQKPGQPPKLLIYETSKLASGVPSRFSGSGSGTEFTLTISDLECDDAATYYCQSSWHSISTDCAFGGGTEVVVKG | no binding | no binding | no binding | no binding | no binding | 3.5 ng/mL | 2.2 ng/mL | 0.675 nM |  |  |  |  | 
2 | DR5TAA-0010 (antibody, V domains shown, rabbit IgG; also called 481; clone 481) VH: QSLEESGGRLVKPDETLTLTCTVSGFSLSSNAISWVRQAPGMGLEWIGIIGSSGYTYYASWAKGRFTVSKTSTTVDLEIASPTTEDTATYFCARGYSGASDYSFNLWGPGTLVTVSS VL: AYDMTQTPDSVEVAVGGTVTIKCQASQTIGDALAWYQQKPGQRPNLLIYRTSTLASGVPSRFSGSGSGTHFTLTISGVECADAATYYCQQGATYNNVLNTFGGGTEVVVKG | no binding | no binding | no binding | no binding | no binding | 2.8 ng/mL | 8.7 ng/mL | 15.9 nM |  |  |  |  | 
3 | 5E11 (antibody, V domains shown, Phage display Fab converted into hu IgG1, kappa light chain; also called clone 5E11) VH: not shown VL: EIVLTQSPGTLSLSPGERATLSCRASQSVSSSYLAWYQQKPGQAPRLLIYGASSRATGIPDRFSGSGSGTDFTLTISRLEPEDFAVYYCQQGTTHPITFGQGTKVEIK |  |  |  |  |  |  |  |  | no binding (tested: 500, 100 and 25 nM) | no binding (tested: 500, 100 and 25 nM) | no binding (tested: 500, 100 and 25 nM) | no binding (tested: 500, 100 and 25 nM) | no binding (tested: 500, 100 and 25 nM)
4 | 18F11 (antibody, IgG1, V domains shown, hu IgG1) VH: not shown VL: EIVLTQSPGTLSLSPGERATLSCRASQSVSSSYLAWYQQKPGQAPRLLIYGASSRATGIPDRFSGSGSGTDFTLTISRLEPEDFAVYYCQQGQLPPITFGQGTKVEIK |  |  |  |  |  |  |  |  | no binding (tested: 500, 100 and 25 nM) | no binding (tested: 500, 100 and 25 nM) | no binding (tested: 500, 100 and 25 nM) | no binding (tested: 500, 100 and 25 nM) | no binding (tested: 500, 100 and 25 nM)
5 | 22E9 (antibody, IgG1, V domains shown, hu IgG1) VH: not shown VL: EIVLTQSPGTLSLSPGERATLSCRASQSVSSSYLAWYQQKPGQAPRLLIYGASSRATGIPDRFSGSGSGTDFTLTISRLEPEDFAVYYCQQGSNQPVTFGQGTKVEIK |  |  |  |  |  |  |  |  | no binding (tested: 500, 100 and 25 nM) | no binding (tested: 500, 100 and 25 nM) | no binding (tested: 500, 100 and 25 nM) | no binding (tested: 500, 100 and 25 nM) | no binding (tested: 500, 100 and 25 nM)
6 | 21H3 (antibody, IgG1, V domains shown, hu IgG1) VH: not shown VL: EIVLTQSPGTLSLSPGERATLSCRASQSVSSSYLAWYQQKPGQAPRLLIYGASSRATGIPDRFSGSGSGTDFTLTISRLEPEDFAVYYCQQGSQPPITFGQGTKVEIK |  |  |  |  |  |  |  |  | no binding (tested: 500, 100 and 25 nM) | no binding (tested: 500, 100 and 25 nM) | no binding (tested: 500, 100 and 25 nM) | no binding (tested: 500, 100 and 25 nM) | no binding (tested: 500, 100 and 25 nM)
7 | 20F2 (antibody, IgG1, V domains shown, hu IgG1; also called DR5 (20F2)) VH: not shown VL: EIVLTQSPGTLSLSPGERATLSCRASQSVSSSYLAWYQQKPGQAPRLLIYGASSRATGIPDRFSGSGSGTDFTLTISRLEPEDFAVYYCQQGESPPPTFGQGTKVEIK |  |  |  |  |  |  |  |  | no binding (tested: 500, 100 and 25 nM) | no binding (tested: 500, 100 and 25 nM) | no binding (tested: 500, 100 and 25 nM) | no binding (tested: 500, 100 and 25 nM) | no binding (tested: 500, 100 and 25 nM)
8 | DR5TAA-0006 (antibody, V domains shown, rabbit IgG; also called 058; clone 058) VH: QSLEESGGRLVTPGTPLTLTCTASGFSLSSNHMSWVRQAPGKGLEWIGYIYAGSGSAYYASWAKGRFTISRTSTTVDLKMTSLTTEDTATYFCAGDAGSSYWEFNLWGPGTLVTVSS VL: LVMTQTPSSTSEPVGGTVTIKCQASQSIGSSLSWYQQKPGQPPKLLIYHASTLASGVPSRFSGSRSGIQTTLTISGVQCDDAATYYCLGVADARRDDGFAFGGGTEVVVKG | no binding | no binding | no binding | no binding | no binding | 2 ng/mL | 1.6 ng/mL | 5.92 nM |  |  |  |  | 
9 | DR5TAA-0013 (antibody, V domains shown, rabbit IgG; also called 298; clone 298) VH: QSLEESGGRLVTPGTPLTLTCTASGFTISSYHMSWVRQAPGKGLEWIGYIYAGSASTWYASWVKGRFTISKTSTTVDLKMTSLTTEDTATYFCARDAGSSYWEFNLWGPGTLVTVSS VL: LVMTQTPSSTSEPVGGTVTIKCQASQSIGSSLSWYQQTPGQPPKLLIYTASSLASSVPKRFSGSRSGTQFTLTISGVQCADAATYYCLGIDDVRRDDGFAFGGGTEVVVKG | no binding | no binding | no binding | no binding | no binding | 2.1 ng/mL | 2.1 ng/mL | 9.12 nM |  |  |  |  | 
10 | DR5TAA-0011 (antibody, V domains shown, also called 174; clone 174) VH: QSVEESGGRLVTPGTPLTLTCTVSGFSISRYAMIWVRQAPGEGLEYIGFITSDSSAYYASWAKGRFTISKTSTTVDLKMTSPTTEDTATYFCARYTYSDGTDLWGPGTLVTVSS VL: DIVMTQTPASVSEPVGGTVTIKCQASQSISTYLSWYQQKPGQPPKRLIYKASTLASGVPSRFKGSGSGTDFTLTIRDLECADAATYYCQPNSGIATYGAAFGGGTEVVVKG | no binding | no binding | no binding | no binding | no binding | 2 ng/mL | 4.3 ng/mL | 4.24 nM |  |  |  |  | 
11 | DR5TAA-0005 (antibody, V domains shown, rabbit IgG; also called 039; clone 039) VH: QSLEESGGRLVTPGTPLTLTCTASGFSLSSAYMSWVRQAPGKGLEWIGYIYSGSGSTWYASWVKGRFTISKTSTTVDLKITSPTTEDTATYFCARGYSTMGDLWGPGTLVTVSS VL: QVLTQTPSPVSAAVGGTVTINCQASQSVYNNRLAWYQQKPGQPPKLLIYLASTLASGVPSRFKGSGSGTQFTLTISDLQCDDAATYYCAGGYSGNINAFGGGTEVVVKG | no binding | no binding | no binding | no binding | no binding | 2.5 ng/mL | 3.7 ng/mL | 13.3 nM |  |  |  |  | 
12 | DR5TAA-0016 (antibody, V domains shown) VH: QSLEESGGRLVKPDETLTLTCTVSGFSLNNYAMSWVRQAPGKGLEWIGMINKYGTKYYATWTKGRATISKTSTTLDLEITSPTTEDTATYFCARVRYAGDDYAEWLDVWGQGILVTVSS VL: DIVMTQTASPVSAAVGGTVTINCQASQSISSSYVSWYQQKPGQPPKLLIYKASTLASGVPSRFSGSGSGTQLSLTIRGVQCDDAATYYCLYGYSDVSSSEYVFGGGTEVVVRG | no binding | no binding | no binding | no binding | no binding | 4 ng/mL | 2.7 ng/mL | 1.45 nM |  |  |  |  | 
